Here are results for 73 sequences from the supplement of paper PMC10567573.

A short description of the data set: protein stability index of a GFP-peptide fusion (GPS, HEK-293T) (PSI 1-6); higher = more stable. Particulars: c terminus: a fixed tail appended.

± gives the standard deviation.
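Note: 24-mer peptide tiles fused after GFP, lentivirally expressed, FACS-sorted into six equal bins by GFP/DsRed ratio, decoded by Illumina sequencing, PSI is the read-weighted mean bin number.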

Take EDEDKSEPEQTGADAAEDEEVDVT [RBBP5]: the protein stability index is, setting by setting: (treatment: DMSO) 5.66 ± 0.28; (treatment: MLN4924 1 uM, 8 h) 5.73 ± 0.31.
The like results for EDSDVEMVEDDSRKEMTAACTPRR [MLH1] were, in that order, 5.54 ± 0.3 and 5.67 ± 0.18.
For EDVRIFFYQSPYDSEQVPQALRRL [NCF4], in that order: 2.79 ± 0.31 and 2.98 ± 0.4.
Consider EDWLSHALSRKKSQGLAREQHAGT [FBF1], for which the protein stability index was 3.9 ± 0.23 (treatment: DMSO) and 4.04 ± 0.14 (treatment: MLN4924 1 uM, 8 h).
The like results for EEDKRRKGEEVTPISAIRHEGKTD [EPB41L3] were, in that order, 5.59 ± 0.23 and 5.66 ± 0.13.
The like results for EEIRGGGLLKYCSLLVHGFKPACM [TENT5D] were, in that order, 3.11 ± 0.5 and 2.35 ± 0.67.
As to EELAPVGTAHIPPTMHLESPALQV [ZNF449], the protein stability index by setting is: (treatment: DMSO) 4.18 ± 0.27; (treatment: MLN4924 1 uM, 8 h) 4.33 ± 0.091.
The like results for EEMWTFRGKIHAFRGQILGFWEEE [CCDC70] were, in that order, 2.15 ± 0.41 and 2.35 ± 0.26.
The like results for EERVRVLQGVRLSENVVNRMKEPS [CHCHD6] were, in that order, 4.6 ± 0.51 and 4.64 ± 0.19.
For EFISSTKRPYAKELETVDFKDKLE [SERPINB5], in that order: 3.98 ± 0.24 and 4.32 ± 0.13.
EFPEARIFEETLNILIYETPRGPD [KCTD13] showed a protein stability index (treatment: DMSO) of 2.48 ± 0.15 and a protein stability index (treatment: MLN4924 1 uM, 8 h) of 2.5 ± 0.44.
For EGAQRDRFPGRKQPGVHEEPVLKK [C22orf31], in that order: 5.15 ± 0.3 and 5.17 ± 0.31.
For EGTNGQLDYSFGDHTSEAVRNLFG [PCDHGC5], in that order: 3.89 ± 0.13 and 3.9 ± 0.32.
For EGVISVSEDRTVRVWLKRDSGQYW [WDFY2], in that order: 2.17 ± 0.2 and 2.3 ± 0.12.
EHQYRLPPMGKAFQELAGKELCAM [SPDEF]: the protein stability index is, setting by setting: (treatment: DMSO) 3.19 ± 0.26; (treatment: MLN4924 1 uM, 8 h) 3.23 ± 0.098.
The like results for EIANEDRKHALERFEQEAVAVDSN [CCDC89] were, in that order, 5.01 ± 0.42 and 5.31 ± 0.16.
For the sequence EIELQAQHNLRYSLENTLTESEAR [KRT33B], the protein stability index was determined as 4.7 ± 0.2 (treatment: DMSO) and 4.48 ± 0.18 (treatment: MLN4924 1 uM, 8 h).
For EIIRKQVSATKAEAEKDGVKVPTT [UBE2R2], in that order: 4.84 ± 0.37 and 4.7 ± 0.25.
For EILSESVVPDVRSVVTTARMQVLK [SMARCE1], in that order: 2.87 ± 0.56 and 2.54 ± 0.38.
The like results for EINPPPHTMEEEEDDDWGEDTTEE [EIF5] were, in that order, 5.52 ± 0.28 and 5.34 ± 0.48.
As to EKKGLHEKALQVLVDQSKKANSPL [VPS39], the protein stability index was 4.65 ± 0.21 (treatment: DMSO) and 4.67 ± 0.18 (treatment: MLN4924 1 uM, 8 h).
For EKLLERQGQAKTPDSMFLAMLAVV [CDK11A], in that order: 1.95 ± 0.21 and 2.2 ± 0.55.
For EKMALDPYTELRKQPLRKYVTPSD [EFHC1], in that order: 4.03 ± 0.29 and 3.95 ± 0.064.
The like results for ELDEPQHEMVAHRHRQEVLCKEMV [ZSCAN9] were, in that order, 4.72 ± 0.24 and 4.76 ± 0.26.
Turning to ELKTKLTKLEAEIVTLRHVLAAKE [TPD52L3], the protein stability index reads like this: (treatment: DMSO) 3.44 ± 0.27; (treatment: MLN4924 1 uM, 8 h) 3.64 ± 0.23.
The like results for ELNGHTQKITAIITFPSLESCEEK [WDR41] were, in that order, 3.1 ± 0.29 and 3.42 ± 0.42.
The like results for ELPNIKREISETEAKALLKERQKK [TFE3] were, in that order, 3.26 ± 0.7 and 4.19 ± 0.57.
The like results for ELSRIVLMRHGMEKIWRPNRVFSL [RAB40C] were, in that order, 2.37 ± 0.37 and 2.63 ± 0.41.
EMFTKPVVILPCQHNLCRKCASDI [TRIM55]: the protein stability index (treatment: DMSO) is 2.96 ± 0.3 and the protein stability index (treatment: MLN4924 1 uM, 8 h) was 2.83 ± 0.47.
For ENKDHSLERGRASLIFSLKNEVGG [TPH1], the protein stability index (treatment: DMSO) stood at 4.09 ± 0.18 and the protein stability index (treatment: MLN4924 1 uM, 8 h) amounted to 3.82 ± 0.38.
For EPDAADGPYDPNSVRISFAKGWGP [SMAD6], in that order: 4.17 ± 0.13 and 4.19 ± 0.17.
For EPEEEILGSDDEEQEDPADYCKGG [SRPK2], in that order: 5.54 ± 0.29 and 5.55 ± 0.24.
As to EPEMAVFLQNAKTLLKKISEASKA [TRIM55], the protein stability index runs as follows: (treatment: DMSO) 2.46 ± 0.3; (treatment: MLN4924 1 uM, 8 h) 2.25 ± 0.22.
For EPLYNWQATKASLKERFAFLFNSE [BTBD1], in that order: 2.97 ± 0.22 and 2.78 ± 0.37.
The like results for EPTEVEEVVPALEPTETLLSEKEI [BCL2L13] were, in that order, 5.5 ± 0.35 and 5.71 ± 0.12.
As to EPYARLPPHKHVARPTEVLAGTQL [TRIB3], the protein stability index reads like this: (treatment: DMSO) 4.05 ± 0.1; (treatment: MLN4924 1 uM, 8 h) 3.88 ± 0.28.
The like results for EQCLPSLENSKYCRFNQDPEAVDE [ATE1] were, in that order, 5.16 ± 0.45 and 5.16 ± 0.26.
The like results for EQLMYIKEDLIIPHHHSFYDFIVT [FAM50A] were, in that order, 2.42 ± 0.21 and 2.27 ± 0.21.
The like results for EQTAPGDSTGYMEVSLDSLDLRVK [EHMT1] were, in that order, 4.59 ± 0.32 and 4.87 ± 0.2.
As for ERCNQLLRALKLVITALKCHKYDR [ZER1], the protein stability index was 2.56 ± 0.47 (treatment: DMSO) and 2.71 ± 0.47 (treatment: MLN4924 1 uM, 8 h).
For ERDRISTRRSSYEDSSLPSINALL [HNF4A], in that order: 3.79 ± 0.097 and 3.84 ± 0.49.
The like results for ERTGFSIRPVAGYLSPRDFLSGLA [TPH1] were, in that order, 2.25 ± 0.048 and 2.36 ± 0.35.
The like results for ESQVKSLCEKAKEILTKESNVQEV [PPP2CA] were, in that order, 5.45 ± 0.11 and 5.18 ± 0.18.
Turning to ESRALSTSSNLGSQYQCENGVSGP [TBX5], the protein stability index came to 4.95 ± 0.25 (treatment: DMSO) and 5.06 ± 0.21 (treatment: MLN4924 1 uM, 8 h).
For ESRQTEVVIRDIDERAMELLIDFA [KLHL20], in that order: 2.9 ± 0.095 and 2.96 ± 0.24.
Regarding ESSMEDCLAHLGEKVSQELKEPLH [BCL2L13], the protein stability index (treatment: DMSO) was found to be 4.97 ± 0.2 and the protein stability index (treatment: MLN4924 1 uM, 8 h) turned out to be 5.09 ± 0.32.
The like results for ETIKDLMRQFLRGLDFLHANCIVH [CDK4] were, in that order, 3.06 ± 0.64 and 3.23 ± 0.56.
With ETLITTIDSSSSWWTNWVIPAISA [CYB5A], the protein stability index reads like this: (treatment: DMSO) 2.47 ± 0.63; (treatment: MLN4924 1 uM, 8 h) 2.48 ± 0.49.
Regarding ETLSGHGPLAQPLTLQVLVAGNPQ [ADAMTS4], the protein stability index (treatment: DMSO) came out at 3 ± 0.43 and the protein stability index (treatment: MLN4924 1 uM, 8 h) turned out to be 2.98 ± 0.31.
The like results for ETQEQDVDLVQKYLEKYYNLKNDG [MMP1] were, in that order, 3.99 ± 0.38 and 3.92 ± 0.3.
The like results for EVFEGREDSIFGDPKKLLTQYFVQ [MAGEA6] were, in that order, 2.34 ± 0.18 and 2.46 ± 0.18.
Take EVKFPNASDMFRRLRDAGFRVTLW [MYORG]: the protein stability index runs as follows: (treatment: DMSO) 2.97 ± 0.74; (treatment: MLN4924 1 uM, 8 h) 2.17 ± 0.31.
The like results for EVQHLREEKSKQFLDLMETIDKQR [LRRC45] were, in that order, 4.51 ± 0.32 and 4.49 ± 0.25.
The like results for EVQKLVESGVDVNSQNEVNGWTCL [ANKRD40] were, in that order, 3.43 ± 0.53 and 3.33 ± 0.16.
For EVRDRMLLKITIPNAFIGSDVVDW [DVL3], in that order: 2.17 ± 0.43 and 2.46 ± 0.15.
For the sequence FAVFPSLNEEQTLQEVPTGLDSIS [ETS2], the protein stability index worked out at 3.81 ± 0.32 (treatment: DMSO) and 3.79 ± 0.39 (treatment: MLN4924 1 uM, 8 h).
The like results for FDQTVFQEVFEPPHYELCTLRGTG [NETO1] were, in that order, 2.96 ± 0.12 and 2.97 ± 0.3.
The like results for FESGSVSFLNVTKSSLIWSYPAGS [TRIM43] were, in that order, 2.13 ± 0.41 and 2.11 ± 0.13.
For FFIGFTALVIMWQKHYVYGPLPQS [COX4I1], in that order: 3.22 ± 0.34 and 3.36 ± 0.57.
Consider FFRKLLDCCQVSAPNRFFQKLNVF [NLN], for which the protein stability index is 2.02 ± 0.073 (treatment: DMSO) and 2.47 ± 0.74 (treatment: MLN4924 1 uM, 8 h).
The like results for FGEDYYGPSRSRHRRRSRERGPYR [CLK3] were, in that order, 3.27 ± 0.78 and 4.29 ± 0.89.
With FGEVRPYFYLGGARGAGPPEPLRI [TRIM35], the protein stability index was 2.63 ± 0.91 (treatment: DMSO) and 2.76 ± 0.18 (treatment: MLN4924 1 uM, 8 h).
For FGSGSNGCLGHGSLTDISQPTIVE [NEK8], in that order: 3.5 ± 0.34 and 3.91 ± 0.2.
For FKAKEAAALGSRGSCSTEVEKETQ [ATP6V1G1], in that order: 2.94 ± 0.44 and 3.26 ± 0.27.
For the sequence FKCRNKTSGQVVAVKKFVESEDDP [CDKL4], the protein stability index came to 4.7 ± 0.089 (treatment: DMSO) and 4.94 ± 0.28 (treatment: MLN4924 1 uM, 8 h).
For FKLLAGRWPFDHNDFGVFLCKLFP [EDNRA], in that order: 2.34 ± 0.37 and 2.5 ± 0.38.
Consider FKRTIQGSIEYSCPASNECEITKR [ESRRA], for which the protein stability index amounted to 3.88 ± 0.23 (treatment: DMSO) and 4.19 ± 0.23 (treatment: MLN4924 1 uM, 8 h).
The like results for FKYINTVISCTIFIVGMVGNATLL [EDNRA] were, in that order, 3.56 ± 0.57 and 2.89 ± 0.61.
The like results for FMTTNVPNVYPAAPQGGMAALNMS [ADD1] were, in that order, 2.73 ± 0.41 and 2.87 ± 0.36.
On to FPALLSTGEFLKLPFERLAFVLSS [KLHL13], for which the protein stability index by setting is: (treatment: DMSO) 2.95 ± 0.74; (treatment: MLN4924 1 uM, 8 h) 3.08 ± 0.73.
Consider FPGRPMGHLSKDVDENDSHEGEDQ [DLC1], for which the protein stability index is 4.7 ± 0.38 (treatment: DMSO) and 5.06 ± 0.31 (treatment: MLN4924 1 uM, 8 h).
FQDKRNLYLIMEFLPGGDMMTLLM [STK38L] came in with a protein stability index (treatment: DMSO) of 3.34 ± 0.31.
For the sequence FQEQVEKLKALHVDSAEYSCLKAI [NR2F2], the protein stability index (treatment: DMSO) was determined as 3.61 ± 0.2 and the protein stability index (treatment: MLN4924 1 uM, 8 h) was found to be 3.74 ± 0.23.
